Laboratory results as given in PMC8684745 (Molecular Biology of the Cell, 2021).
Values belong to the molecule of their own block, whether it stands above or below them.

Experiments:
[1] = target: Drp1 (full-length human Drp1 isoform 3, Drp1 000) (human) (UniProt O00429); test: TIRF microscopy
[2] = target: Drp1/actin bundles (actin filaments prebundled by Cy5-Drp1) (human | rabbit) (UniProt O15027); test: TIRF microscopy
[3] = target: the molecule itself; test: AUC

Drp1/actin bundles (actin filaments prebundled by Cy5-Drp1) (human | rabbit), sequence (O15027 whole entry): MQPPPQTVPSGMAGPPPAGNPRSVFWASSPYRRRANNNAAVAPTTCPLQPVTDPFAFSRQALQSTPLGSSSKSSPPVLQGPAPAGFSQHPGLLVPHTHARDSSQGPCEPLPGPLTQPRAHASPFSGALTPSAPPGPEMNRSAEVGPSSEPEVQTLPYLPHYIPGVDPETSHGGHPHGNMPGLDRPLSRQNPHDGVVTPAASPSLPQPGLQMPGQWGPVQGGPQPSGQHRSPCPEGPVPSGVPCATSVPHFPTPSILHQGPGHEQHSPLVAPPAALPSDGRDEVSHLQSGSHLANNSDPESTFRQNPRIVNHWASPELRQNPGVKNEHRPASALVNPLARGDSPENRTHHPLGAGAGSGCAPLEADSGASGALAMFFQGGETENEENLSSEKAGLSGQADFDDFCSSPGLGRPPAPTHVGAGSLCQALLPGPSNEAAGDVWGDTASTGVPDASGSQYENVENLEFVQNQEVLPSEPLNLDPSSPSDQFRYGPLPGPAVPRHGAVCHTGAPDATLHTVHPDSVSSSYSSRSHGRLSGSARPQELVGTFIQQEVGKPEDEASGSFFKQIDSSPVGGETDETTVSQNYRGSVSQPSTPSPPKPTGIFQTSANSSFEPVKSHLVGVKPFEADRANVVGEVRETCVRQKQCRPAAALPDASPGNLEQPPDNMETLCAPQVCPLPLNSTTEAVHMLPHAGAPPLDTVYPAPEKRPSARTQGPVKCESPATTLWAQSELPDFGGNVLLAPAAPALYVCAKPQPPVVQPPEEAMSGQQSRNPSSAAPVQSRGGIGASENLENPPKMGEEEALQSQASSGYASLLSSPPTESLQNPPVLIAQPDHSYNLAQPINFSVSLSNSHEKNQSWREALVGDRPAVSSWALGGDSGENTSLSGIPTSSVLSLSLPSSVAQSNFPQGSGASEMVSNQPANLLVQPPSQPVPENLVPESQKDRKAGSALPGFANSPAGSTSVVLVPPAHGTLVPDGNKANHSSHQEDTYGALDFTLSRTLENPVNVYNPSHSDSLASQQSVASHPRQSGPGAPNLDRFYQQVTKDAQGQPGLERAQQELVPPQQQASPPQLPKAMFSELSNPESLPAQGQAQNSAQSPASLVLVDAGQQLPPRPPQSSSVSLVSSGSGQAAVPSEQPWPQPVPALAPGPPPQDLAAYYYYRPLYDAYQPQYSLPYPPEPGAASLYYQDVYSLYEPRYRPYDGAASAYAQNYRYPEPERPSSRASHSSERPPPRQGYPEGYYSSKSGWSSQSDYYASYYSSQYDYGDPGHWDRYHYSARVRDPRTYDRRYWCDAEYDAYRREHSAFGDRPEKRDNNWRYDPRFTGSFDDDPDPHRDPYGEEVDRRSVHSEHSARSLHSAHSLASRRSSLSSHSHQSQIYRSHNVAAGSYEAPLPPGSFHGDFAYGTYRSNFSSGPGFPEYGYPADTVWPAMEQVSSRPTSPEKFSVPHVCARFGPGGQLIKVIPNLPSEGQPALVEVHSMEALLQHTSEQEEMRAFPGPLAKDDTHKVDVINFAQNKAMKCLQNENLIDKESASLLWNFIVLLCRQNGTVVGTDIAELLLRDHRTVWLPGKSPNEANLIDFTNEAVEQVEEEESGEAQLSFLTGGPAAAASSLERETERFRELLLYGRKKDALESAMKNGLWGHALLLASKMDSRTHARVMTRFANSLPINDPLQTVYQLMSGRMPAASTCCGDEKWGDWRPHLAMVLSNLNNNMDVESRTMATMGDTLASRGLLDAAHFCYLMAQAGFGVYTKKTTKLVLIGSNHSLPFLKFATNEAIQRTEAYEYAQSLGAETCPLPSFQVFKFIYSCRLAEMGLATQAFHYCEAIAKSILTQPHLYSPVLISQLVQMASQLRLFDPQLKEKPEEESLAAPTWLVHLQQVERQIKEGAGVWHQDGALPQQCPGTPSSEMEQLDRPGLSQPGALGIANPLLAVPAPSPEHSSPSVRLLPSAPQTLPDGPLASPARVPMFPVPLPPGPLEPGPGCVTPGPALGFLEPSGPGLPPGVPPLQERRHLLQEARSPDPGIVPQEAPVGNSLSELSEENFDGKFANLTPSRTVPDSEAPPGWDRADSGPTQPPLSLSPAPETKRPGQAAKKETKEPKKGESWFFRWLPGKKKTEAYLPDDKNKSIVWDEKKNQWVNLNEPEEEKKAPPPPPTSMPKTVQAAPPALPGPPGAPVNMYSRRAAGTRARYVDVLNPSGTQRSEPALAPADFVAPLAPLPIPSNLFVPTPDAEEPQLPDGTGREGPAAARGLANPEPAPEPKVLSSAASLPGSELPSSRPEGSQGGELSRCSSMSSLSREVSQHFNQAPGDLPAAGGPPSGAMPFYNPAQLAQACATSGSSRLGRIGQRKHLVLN

fold less binding than Mff-∆TM [1]: 5 fold
Molecule: Mff-L2P (Mff-∆TM with L179P and L186P) (from UniProt Q9GZY8-4 1-218) (domain or fragment)

percent of Mff-∆TM remaining after wash [2]: 50%
Molecule: Mff-∆TM (cytoplasmic region of human Mff isoform 4, C-terminally 6His-tagged) (from UniProt Q9GZY8-4 1-218) (domain or fragment)

B1: GFP-CC (CC domain of human Mff isoform 4, amino acids 149–197, on the C-terminus of GFP) (domain or fragment)
chain: SGGGGISNIDTTIEGTSDDLTVVDAASLRRQIIKLNRRLQLLEEENKERAKREGGGS
stoichiometry N [3]: 3
